Residue numbers refer to the chain shown, from its start.
T1: Human IL-23 (human, UniProt Q9NPF7 20-189; P29460 23-328)
T1 sequence (looked up) 1: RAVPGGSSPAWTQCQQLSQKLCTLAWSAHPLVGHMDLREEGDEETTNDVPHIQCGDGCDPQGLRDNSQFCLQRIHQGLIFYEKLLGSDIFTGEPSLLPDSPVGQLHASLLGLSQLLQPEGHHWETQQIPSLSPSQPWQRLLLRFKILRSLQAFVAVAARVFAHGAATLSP
T1 sequence (looked up) 2: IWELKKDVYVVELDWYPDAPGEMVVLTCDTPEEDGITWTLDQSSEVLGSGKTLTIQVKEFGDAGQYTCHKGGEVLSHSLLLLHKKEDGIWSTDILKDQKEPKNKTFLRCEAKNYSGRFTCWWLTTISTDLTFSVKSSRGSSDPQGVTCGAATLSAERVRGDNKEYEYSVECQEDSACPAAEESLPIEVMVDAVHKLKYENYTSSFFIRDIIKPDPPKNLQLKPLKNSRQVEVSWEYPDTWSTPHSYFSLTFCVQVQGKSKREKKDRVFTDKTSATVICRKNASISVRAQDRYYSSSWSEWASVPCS

B1: Anti-IL-23 Adnectin 1866C02 (designed binder)
chain: MGVSDVPRDLEVVAATPTSLLISWDHNYTWYRYYRITYGETGGNSPVQEFTVPRGVDTATISGLKPGVDYTITVYAVTSSYKYDIQYPPISINYRTEIDKPSQHHHHHH
B2: Anti-IL-23 Adnectin 1454B08 (designed binder)
chain: B1 chain with D25E, N27D, T29P, W30Y, Y31R, R54K, G55D, I85M, P88S
notes: 10Fn3-based Adnectin expressed in E. coli followed by a HIS6 tag; Fn3 domain is positions 3-96 of the entry; also called Parent
B3: Anti-IL-23 Adnectin 1866D11 (designed binder)
chain: B1 chain with N27D, T29P, W30Y, Y31R, R54K, G55D
B4: Anti-IL-23 Adnectin 1454D02 (designed binder)
chain: B1 chain with N27D, T29P, W30Y, Y31R, G55N, V56I, D57N, I85M, P88S
notes: 10Fn3-based Adnectin expressed in E. coli followed by a HIS6 tag (captured by anti-His mAb in SPR)
B5: Anti-IL-23 Adnectin 1241A05 (designed binder)
chain: B1 chain with D25N, T29S, W30Y, D57A, I85M, P88S
notes: 10Fn3-based Adnectin expressed in E. coli followed by a HIS6 tag; Fn3 domain is positions 3-96 of the entry; also called Clone 1241A05
B6: Anti-IL-23 Adnectin 1454C03 (designed binder)
chain: B1 chain with H26M, N27Y, T29P, W30Y, Y31S, R54K, G55E, V56Y, I85M, P88S
notes: 10Fn3-based Adnectin expressed in E. coli followed by a HIS6 tag; Fn3 domain is positions 3-96 of the entry
B7: Anti-IL-23 Adnectin 1454H11 (designed binder)
chain: B1 chain with D25E, N27D, T29P, W30Y, Y31R, G55E, V56D, D57S, I85M, P88S
notes: as for B6

Target: T1, Human IL-23
Experiment: cell-based or functional assay

Binder	pSTAT3 IC50 (nM)
B1	0.03 nM
B2	0.3 nM
B3	0.03 nM
B4	0.48 nM
B5	30.7 nM
B6	0.44 nM
B7	0.45 nM

Target: T1, Human IL-23
Experiment: competitive ELISA, ratio of IC50 against parent 1454B08
Method: (§1) Adnectin variants were tested by ELISA for their ability to bind IL-23 in a manner that was competitive with the binding site of the native IL-23 receptor (IL-23R). Recombinant human IL-23R-Fc (R&D Systems, Minneapolis, Minn.) was coated overnight at 4° C. on a NUNC® Maxisorp plate (Thermo Fisher Scientific, Denmark) with 50 μL at 4 μg/mL in PBS. All washing was performed with PBST (PBS with 0.05% (w/v) Tween) using an automated plate washer (Biotek, Vt.). OptEIA buffer (BD Bioscience, CA) was used as block and assay diluent. Adnectin dilutions ranging from 200 nM to 28 pM were pre-incubated with 1 nM IL-23 for an hour before transferring to blocked IL-23R-Fc coated plates for 30 minutes. Bound IL-23 was detected via anti-IL-23 (GeneTex, CA) and anti-mouse-HRP (R&D Systems, MN) followed by TMB (3,3′,5,5′-tetramethylbenzidine) (BD Bioscience, CA) addition. Typical development time was 10 minutes. […] IC50s were generated from the average of four runs with an in-house curve fitting application.

Binder	Activity (parent/mutant)
B2	1

Target: T1, Human IL-23
Experiment: SPR (Biacore T100), Adnectin captured by anti-His mAb, IL-23 injected, 25 C
Method: The anti-His antibody, mAb050 (RnD Systems, MN) was diluted to 20 μg/mL in acetate, pH 5.0 and immobilized to ˜9000 RU on flow cells 1 and 2 of a CM5 chip surface (GE Healthcare, Piscataway, N.J.) according to the manufacturer's instructions. All surface plasmon experiments were conducted in HBS-EP (10 mM Hepes 150 mM NaCl 3 mM EDTA 0.05% Surfactant P20) at 25° C. IL-23 was injected over anti-His mAb captured Adnectins for 2 minutes followed by a 10 minute dissociation phase. Kinetic parameters were calculated using the T100. Biaevaluation.

Binder	Kd	koff	kon
B2	3.72 nM	0.000409 s⁻¹	110000 M⁻¹ s⁻¹
B4	9.57 nM	0.000438 s⁻¹	45700 M⁻¹ s⁻¹
B5	32.6 nM	0.000236 s⁻¹	7280 M⁻¹ s⁻¹
B6	3.91 nM	0.000468 s⁻¹	120000 M⁻¹ s⁻¹
B7	2.8 nM	0.000227 s⁻¹	81000 M⁻¹ s⁻¹

Target: T1, Human IL-23
Experiment: competitive ELISA: Adnectin pre-incubated with 1 nM IL-23, binding to coated IL-23R-Fc
Method: as §1

Binder	IC50
B2	1 nM

Reference: patent US20130288372A1 (Bristol-Myers Squibb, published 2013)
